Results taken from patent publication US20250236864A1 (NATIONAL UNIVERSITY CORPORATION EHIME UNIVERSITY, published 2025).

B1: L7-18H CAR (scFv)
scFv: QSALTQPRSVSGSPGQSVTISCTGTSSDVGGYNYVSWYQQHPGKAPKLMIYDVSNRPSGVSNRFSGSKSGNTASLTISGLQTGDEADYYCGTWDTSLTAVVFGGGTELTVLGSTSGSGKPGSGEGSTKGEVQLVESGGGLVQPGRSLRLSCAASGFTFDDYAMHWVRQAPGKGLEWVSGISWNSGRIGYADSVKGRFTISRDNAKNSLFLQMNSLRAEDTAVYYCARDQGYHYYDSAEHAFDIWGQGTVVTVSSAAAIEVMYPPPYLDNEKSNGTIIHVKGKHLCPSPLFPGPSKPFWVLVVVGGVLACYSLLVTVAFIIFWVRSKRSRLLHSDYMNMTPRRPGPTRKHYQPYAPPRDFAAYRSRVKFSRSADAPAYQQGQNQLYNELNLGRREEYDVLDKRRGRDPEMGGKPRRKNPQEGLYNELQKDKMAEAYSEIGMKGERRRGKGHDGLYQGLSTATKDTYDALHMQALPPR
notes: Chimeric antigen receptor on cells; also called L7-18H CAR-Ts
B2: L9-18H CAR (scFv)
scFv: QSVLTQPPSVSAAPGQKVTISCSGSWSNIGDDHVSWYQQFPGAAPKLLIYDTSKRPSRVADRFSGSKSGASATLAITGLQAGDEADYYCGTWESSLSGVVFGGGTELTVLGSTSGSGKPGSGEGSTKGEVQLVESGGGLVQPGRSLRLSCAASGFTFDDYAMHWVRQAPGKGLEWVSGISWNSGRIGYADSVKGRFTISRDNAKNSLFLQMNSLRAEDTAVYYCARDQGYHYYDSAEHAFDIWGQGTVVTVSSAAAIEVMYPPPYLDNEKSNGTIIHVKGKHLCPSPLFPGPSKPFWVLVVVGGVLACYSLLVTVAFIIFWVRSKRSRLLHSDYMNMTPRRPGPTRKHYQPYAPPRDFAAYRSRVKFSRSADAPAYQQGQNQLYNELNLGRREEYDVLDKRRGRDPEMGGKPRRKNPQEGLYNELQKDKMAEAYSEIGMKGERRRGKGHDGLYQGLSTATKDTYDALHMQALPPR
notes: Chimeric antigen receptor on cells; also called L9-18H CAR-Ts
B3: L13-18H CAR (scFv)
scFv: QSALTQPASVSGSPGQSITISCTGLSSDVGGYDYVSWYQQHPGIAPKLMIYDVTNRPSGVSSRFSGSKSGNTASLTISGLQAEDEADYYCSSYTTSTTWVFGAGTKLTVLGSTSGSGKPGSGEGSTKGEVQLVESGGGLVQPGRSLRLSCAASGFTFDDYAMHWVRQAPGKGLEWVSGISWNSGRIGYADSVKGRFTISRDNAKNSLFLQMNSLRAEDTAVYYCARDQGYHYYDSAEHAFDIWGQGTVVTVSSAAAIEVMYPPPYLDNEKSNGTIIHVKGKHLCPSPLFPGPSKPFWVLVVVGGVLACYSLLVTVAFIIFWVRSKRSRLLHSDYMNMTPRRPGPTRKHYQPYAPPRDFAAYRSRVKFSRSADAPAYQQGQNQLYNELNLGRREEYDVLDKRRGRDPEMGGKPRRKNPQEGLYNELQKDKMAEAYSEIGMKGERRRGKGHDGLYQGLSTATKDTYDALHMQALPPR
notes: Chimeric antigen receptor on cells; also called L13-18H CAR-Ts
B4: L14-18H CAR (scFv)
scFv: QSALTQPASVSGSPGQSITISCTGTTSDVGTTNYVSWYQQHPGKAPKLLIYDVTNRPSGVPDRFSGSKSANTASLTISGLQAEDEADYYCCSYAGSYTFVVFGGGTELTVLGSTSGSGKPGSGEGSTKGEVQLVESGGGLVQPGRSLRLSCAASGFTFDDYAMHWVRQAPGKGLEWVSGISWNSGRIGYADSVKGRFTISRDNAKNSLFLQMNSLRAEDTAVYYCARDQGYHYYDSAEHAFDIWGQGTVVTVSSAAAIEVMYPPPYLDNEKSNGTIIHVKGKHLCPSPLFPGPSKPFWVLVVVGGVLACYSLLVTVAFIIFWVRSKRSRLLHSDYMNMTPRRPGPTRKHYQPYAPPRDFAAYRSRVKFSRSADAPAYQQGQNQLYNELNLGRREEYDVLDKRRGRDPEMGGKPRRKNPQEGLYNELQKDKMAEAYSEIGMKGERRRGKGHDGLYQGLSTATKDTYDALHMQALPPR
notes: Chimeric antigen receptor on cells; also called L14-18H CAR-Ts
B5: L16-18H CAR (scFv)
scFv: QSALTQPPSASGSPGQSVTISCTGTSSDVGVYNYVSWYQQHPGKAPKLMIYDVSKRPSGVPDRFSGSKSANTASLTISGLQAEDEADYYCAAWDDSLNGVVFGGGTQLTVLGSTSGSGKPGSGEGSTKGEVQLVESGGGLVQPGRSLRLSCAASGFTFDDYAMHWVRQAPGKGLEWVSGISWNSGRIGYADSVKGRFTISRDNAKNSLFLQMNSLRAEDTAVYYCARDQGYHYYDSAEHAFDIWGQGTVVTVSSAAAIEVMYPPPYLDNEKSNGTIIHVKGKHLCPSPLFPGPSKPFWVLVVVGGVLACYSLLVTVAFIIFWVRSKRSRLLHSDYMNMTPRRPGPTRKHYQPYAPPRDFAAYRSRVKFSRSADAPAYQQGQNQLYNELNLGRREEYDVLDKRRGRDPEMGGKPRRKNPQEGLYNELQKDKMAEAYSEIGMKGERRRGKGHDGLYQGLSTATKDTYDALHMQALPPR
notes: Chimeric antigen receptor on cells; also called L16-18H CAR-Ts
B6: L17-18H CAR (scFv)
scFv: QSVLTQPPSASGTPGQRVTISCSGSSSNIGNNYVCWYQHLPGTAPKLLIYDNVKRPSGIPDRFSGSKSGTSASLAISGLRSEDEADYYCAAWDDSLSAIFGGGTELTVLGSTSGSGKPGSGEGSTKGEVQLVESGGGLVQPGRSLRLSCAASGFTFDDYAMHWVRQAPGKGLEWVSGISWNSGRIGYADSVKGRFTISRDNAKNSLFLQMNSLRAEDTAVYYCARDQGYHYYDSAEHAFDIWGQGTVVTVSSAAAIEVMYPPPYLDNEKSNGTIIHVKGKHLCPSPLFPGPSKPFWVLVVVGGVLACYSLLVTVAFIIFWVRSKRSRLLHSDYMNMTPRRPGPTRKHYQPYAPPRDFAAYRSRVKFSRSADAPAYQQGQNQLYNELNLGRREEYDVLDKRRGRDPEMGGKPRRKNPQEGLYNELQKDKMAEAYSEIGMKGERRRGKGHDGLYQGLSTATKDTYDALHMQALPPR
notes: Chimeric antigen receptor on cells; also called L17-18H CAR-Ts
B7: L22-18H CAR (scFv)
scFv: QSALTQPASVSGSPGQSITISCTGTSSDVGGYNYVSWYQQHPGKAPKLMIYDVSNRPSGVPDRFSGSKSGTSASLAISGLQSEDEADYYCHSYDSSLSHVFGTGTKVTVLGSTSGSGKPGSGEGSTKGEVQLVESGGGLVQPGRSLRLSCAASGFTFDDYAMHWVRQAPGKGLEWVSGISWNSGRIGYADSVKGRFTISRDNAKNSLFLQMNSLRAEDTAVYYCARDQGYHYYDSAEHAFDIWGQGTVVTVSSAAAIEVMYPPPYLDNEKSNGTIIHVKGKHLCPSPLFPGPSKPFWVLVVVGGVLACYSLLVTVAFIIFWVRSKRSRLLHSDYMNMTPRRPGPTRKHYQPYAPPRDFAAYRSRVKFSRSADAPAYQQGQNQLYNELNLGRREEYDVLDKRRGRDPEMGGKPRRKNPQEGLYNELQKDKMAEAYSEIGMKGERRRGKGHDGLYQGLSTATKDTYDALHMQALPPR
notes: Chimeric antigen receptor on cells; also called L22-18H CAR-Ts
B8: K4-18H CAR (scFv)
scFv: EIVLTQSPGTLSLSPGERATLSCRASQSVSSNLAWYQQKPGQAPRLLIYGASTRATGIPARFSGSGSGTEFTLTISSLQSEDFAVYYCQQYNNWPPLYTFGQGTKLEIKGSTSGSGKPGSGEGSTKGEVQLVESGGGLVQPGRSLRLSCAASGFTFDDYAMHWVRQAPGKGLEWVSGISWNSGRIGYADSVKGRFTISRDNAKNSLFLQMNSLRAEDTAVYYCARDQGYHYYDSAEHAFDIWGQGTVVTVSSAAAIEVMYPPPYLDNEKSNGTIIHVKGKHLCPSPLFPGPSKPFWVLVVVGGVLACYSLLVTVAFIIFWVRSKRSRLLHSDYMNMTPRRPGPTRKHYQPYAPPRDFAAYRSRVKFSRSADAPAYQQGQNQLYNELNLGRREEYDVLDKRRGRDPEMGGKPRRKNPQEGLYNELQKDKMAEAYSEIGMKGERRRGKGHDGLYQGLSTATKDTYDALHMQALPPR
notes: Chimeric antigen receptor on cells; also called K4-18H CAR-Ts

These binders were tested against T1, PE-labeled CD19 dimer (soluble human CD19 with a His-tag, cross-linked by a PE-labeled anti-His mAb) (human, UniProt P15391 20-291) (assay: flow cytometry; PE-labeled CD19 dimer (40 µg/mL) on CAR-expressing Jurkat 76 cells).
T1 construct: extracellular domain; Soluble CD19 mixed 2:1 (molar) with PE-labeled anti-His mAb clone GG11-8F3.5.1; also called soluble CD19; not shown: His-tag
T1 sequence: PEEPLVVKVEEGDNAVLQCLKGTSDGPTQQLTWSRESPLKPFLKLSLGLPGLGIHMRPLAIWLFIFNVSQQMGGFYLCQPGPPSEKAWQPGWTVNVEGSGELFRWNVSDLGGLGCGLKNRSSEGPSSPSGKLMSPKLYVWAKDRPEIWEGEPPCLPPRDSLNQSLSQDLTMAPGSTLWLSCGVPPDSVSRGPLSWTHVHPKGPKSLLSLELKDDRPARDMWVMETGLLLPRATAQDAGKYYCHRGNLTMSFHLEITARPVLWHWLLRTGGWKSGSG
B1: binds.
B2: binds.
B3: binds.
B4: binds.
B5: binds.
B6: binds.
B7: binds.
B8: binds.
